Results as given in US20210054097A1 (Novo Nordisk, published 2021).
Substitutions are numbered along the chain they refer to. Ends that are not written are not given here.

B1: Nb 701B09 (VHH)
VHH: EVQLVESGGGVVQPGGSLRLSCAASGRTFSTYAMGWFRQAPGKEREFVAAISWSGSRTYYADSVKGRFTISRDNSKNTVYLQMNSLRPEDTALYYCAADATPANGELDYWGQGTLVTVSS
notes: monovalent Nanobody; also called Nb 701609; not shown: C-terminal FLAG3 and HIS6 tag
B2: Nb 702C12 (VHH)
VHH: EVQLVESGGGVVQPGGSLRLSCVASGRTFSRYAMGWFRQAPGKEREFVAAISRRGGSTNYADSVKGRFTISRDNSKNTVYLQMNSLRPEDTALYYCAADYSSGDGYLDYWGQGTLVTVSS
notes: monovalent Nanobody; not shown: C-terminal FLAG3 and HIS6 tag
B3: Nb 729C08 (VHH)
VHH: EVQLVESGGGVVQPGGSLRLSCAASGFTFSDYAMSWVRQAPGKGLEWVSGITGGGRTYYADSVKGRFTISRDNSKNTLYLQMNSLRPEDTALYYCAAAILTRTRRTYDYWGQGTLVTVSS
notes: monovalent Nanobody; also called Nb 729008; not shown: C-terminal FLAG3 and HIS6 tag
B4: Nb 729A04 (VHH)
VHH: EVQLVESGGGVVQPGGSLRLSCAASGFTFSDYAMSWVRQAPGKGLEWVSGITSGGGRTYYADSVKGRFTISRDNSKNTLYLQMNSLRPEDTALYYCAAVRTLGLRGSYDYWGQGTLVTVSS
notes: as for B2
B5: Nb 501A02 (VHH)
VHH: EVQLVESGGGLVQPGGSLRLSCAASGFTFSNYEMSWVRQAPGKGLEWVSDIGSGGGVSTYYADSVKGRFTISRDNAKNTLYLQMNSLKPEDTAMYYCARGWTYGSDGMDYWGKGTLVTVSS
notes: monovalent control Nanobody; also called control Nanobody; not shown: C-terminal FLAG3 and HIS6 tag
B6: Nb 730C03 (VHH)
VHH: B4 VHH with A23V, G55S, L79V, V99A, R100I, T101L, L102R, L104Y, G106K, S107T
notes: monovalent Nanobody; also called Nb 730003; not shown: C-terminal FLAG3 and HIS6 tag

Target: T1, FX activation peptide 12-mer PTENPFDLLDFN (human)
T1 peptide: PTENPFDLLDFN-biotin
Assay: peptide ELISA
In short: (§1)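 Nanobodies (FLAG-tagged) or IgG antibodies, 2 μg/mL, incubated 1 h on C-terminally biotinylated peptide captured via streptavidin, washing buffer pH 8.60 containing CaCl₂ and Tween 20. Read-out: HRP-conjugated secondary antibody with TMB colour development.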

Binder | ELISA signal relative to background | binding result
B1 | 3.91 | –
B2 | 4.58 | –
B3 | 2.06 | –
B4 | 5.18 | –
B5 | 0.88 | no binding (tested: 2 µg/mL)

Target: T2, FX activation peptide 12-mer PFDLLDFNQTQP (human)
T2 peptide: PFDLLDFNQTQP-biotin
Assay: peptide ELISA
In short: as §1

Binder | ELISA signal relative to background | binding result
B1 | 3.48 | –
B2 | 4.95 | –
B3 | 1.18 | –
B6 | 1.23 | –
B5 | 0.79 | no binding (tested: 2 µg/mL)
